Results on nine molecules are retold here after US20220195070A1 (Chugai, published 2022).

Like-named read-outs stand apart in the source and are kept apart here.

The target of assay [1] is T1, SG115 (human, UniProt P01857 1-328 = IgG part).
T1 construct: also called modified IgG heavy chain constant region SG115
The experiment in a line: ELISA, OD405 against dose (ng/mL, log axis 1-100).

Assay [2] addresses T2, SG115v1 (human, UniProt P01857 1-328 = IgG part).
T2 construct: Carries the CH2 modifications of SG115 (Arg235, Arg236, Lys239, EU); Construct used in the ELISA is not described beyond the constant region; also called modified IgG heavy chain constant region SG115v1
The experiment in a line: ELISA, OD405 against dose (ng/mL, log axis 1-100). On the technique in general: An ELISA detects its analyte on a solid surface through an enzyme-linked reagent.

The target in assay [3] is T3, SG115v2 (human, UniProt P01857 1-328 = IgG part).
T3 construct: Carries the CH3 modifications of SG115 (Leu428, Ala434, Arg438, Glu440, EU); Construct used in the ELISA is not described beyond the constant region; also called modified IgG heavy chain constant region SG115v2
T3 sequence (P01857 other isoform, or with tags, fused parts or gaps limits assumed): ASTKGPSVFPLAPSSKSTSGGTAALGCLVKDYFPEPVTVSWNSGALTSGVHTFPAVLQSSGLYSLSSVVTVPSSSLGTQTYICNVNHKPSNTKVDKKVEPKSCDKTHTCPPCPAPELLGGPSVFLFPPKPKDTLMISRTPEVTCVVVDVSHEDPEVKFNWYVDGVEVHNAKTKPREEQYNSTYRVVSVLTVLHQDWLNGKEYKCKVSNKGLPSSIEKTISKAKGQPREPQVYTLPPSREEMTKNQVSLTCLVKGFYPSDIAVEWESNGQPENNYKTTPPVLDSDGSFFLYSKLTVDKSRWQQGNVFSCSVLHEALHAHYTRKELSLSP
The experiment in a line: ELISA, OD405 against dose (ng/mL, log axis 1-100).

The target of assay [4] is T4, Glm (human, UniProt P01857 1-328 = IgG part).
T4 construct: Construct used in the ELISA is not described beyond the constant region; also called G1m
T4 sequence (P01857 1-328 D239E/L241M limits assumed): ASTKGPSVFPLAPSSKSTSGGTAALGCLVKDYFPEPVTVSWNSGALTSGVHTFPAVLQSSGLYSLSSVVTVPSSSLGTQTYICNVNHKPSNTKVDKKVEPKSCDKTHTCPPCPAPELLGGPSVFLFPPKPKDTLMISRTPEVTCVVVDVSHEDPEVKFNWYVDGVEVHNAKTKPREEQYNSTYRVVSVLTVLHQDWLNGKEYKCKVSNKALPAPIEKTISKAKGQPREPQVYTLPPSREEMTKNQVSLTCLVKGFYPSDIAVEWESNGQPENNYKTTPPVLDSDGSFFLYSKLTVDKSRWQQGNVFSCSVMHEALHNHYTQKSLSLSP
The experiment in a line: ELISA, OD405 against dose (ng/mL, log axis 1-100).

In assay [5] the target is T5, G4d (human, UniProt P01861 1-325 = IgG part).
T5 construct: Construct used in the ELISA is not described beyond the constant region
T5 sequence (P01861 1-325 S108P limits assumed): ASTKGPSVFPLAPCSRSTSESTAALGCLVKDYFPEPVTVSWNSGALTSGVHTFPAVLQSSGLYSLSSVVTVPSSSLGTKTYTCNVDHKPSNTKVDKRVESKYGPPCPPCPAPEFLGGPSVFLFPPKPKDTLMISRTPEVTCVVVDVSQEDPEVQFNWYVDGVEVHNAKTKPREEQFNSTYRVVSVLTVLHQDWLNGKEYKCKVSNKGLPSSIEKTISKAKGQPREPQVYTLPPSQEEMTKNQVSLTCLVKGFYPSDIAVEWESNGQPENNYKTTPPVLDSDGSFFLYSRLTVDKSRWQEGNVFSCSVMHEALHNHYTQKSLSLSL
The assay is described as follows: ELISA, OD405 against dose (ng/mL, log axis 1-100).

For assay [6], the target named is T1, SG115. The assay is described as follows: ELISA, OD405 against dose (ng/mL, log axis 1-100). This is another data set of the same source.
Assay [7] addresses T2, SG115v1. The experiment in a line: ELISA, OD405 against dose (ng/mL, log axis 1-100). This is another data set of the same source.
Assay [8] has as its target T3, SG115v2. The assay is described as follows: ELISA, OD405 against dose (ng/mL, log axis 1-100). The source holds these as a separate data set.
Assay [9] has as its target T4, Glm. The assay is described as follows: ELISA, OD405 against dose (ng/mL, log axis 1-100). The source holds these as a separate data set.
Assay [10] has as its target T5, G4d. The experiment in a line: ELISA, OD405 against dose (ng/mL, log axis 1-100). The source holds these as a separate data set.
The next assay deals with T6, Anti-IL-8 Antibody.
T6 construct: also called anti-human IL-8 antibody; Fc-Mutated Antibody
T6 sequence (constant, as listed by the source limits assumed): as the sequence (P01857 1-328 D239E/L241M limits assumed) above, with L118R, G119R, A210G, A213S, P214S, M311L, N317A, Y319T, Q321R, S323E counted along it
The assay is described as follows: SPR (Biacore T200), 25 C, pH 7.4; SKA antibody captured by anti-rabbit IgG, Anti-IL-8 Antibody injected 0-800 nM. The procedure: To confirm the binding ability of Anti Fc-Mutation Antibodies that show selective binding to SG115v1, KD values of Anti Fc-Mutation Antibodies against Anti-IL-8 Antibody at pH 7.4 were determined at 25 degrees C. using Biacore T200 instrument (GE Healthcare). Sequence of Fc region of Anti-IL-8 Antibody has high similarity to that of Anti-hC5 Antibody.
Anti-rabbit IgG (Abbexa) was immobilized onto FC1 and 2 of a CMS sensor chip using an amine coupling kit (GE Healthcare). For the immobilization of anti-rabbit IgG, HBS-EP+, pH7.4 (GE Healthcare) buffer was used as running buffer. After the immobilization, running buffer was changed to Phosphate pH7.4 buffer (50 mM phosphate buffer containing 150 mM NaCl and 0.05 w/v % P-20, pH 7.4). Each Anti Fc-Mutation Antibody was captured onto FC2 of the sensor chip by anti-rabbit IgG. The amount of Anti Fc-Mutation Antibody to be captured was adjusted so that the number of resonance units (RU) was 100. Anti-IL-8 Antibody was injected at 0, 100, 400, and 800 nM at 10 micro L/min. Sensor surface was regenerated after each cycle with 10 mM Glycine-HCl, pH2.0, which was injected at a flow rate of 30 micro L/min. KD values were obtained using Biacore T200 Evaluation software, version 2.0 (GE Healthcare).
(In general: In SPR one partner is held on a chip, and binding of the other changes the refractive index at the surface.)

T2 sequence (P01857 other isoform, or with tags, fused parts or gaps limits assumed): as the sequence (P01857 1-328 D239E/L241M limits assumed) above, with L118R, G119R, S122K, A210G, A213S, P214S counted along it
T1 sequence (P01857 other isoform, or with tags, fused parts or gaps limits assumed): as the sequence (P01857 1-328 D239E/L241M limits assumed) above, with L118R, G119R, S122K, A210G, A213S, P214S, M311L, N317A, Q321R, S323E counted along it

B1: SKA0171 (antibody, V domains shown)
VH: QSLEESGGGLVQPEGSLTLSCTASGFSFSSSYYMCWVRQAPGKGLEWIACIYGGNSVITYYANWAKGRFTISETSSTTVTLQMTSLTAADTATYFCAREVHYDYLYTTYGYANLWGPGTLVTVSS
VL: AIKMTQTPASVSAVVGGTVTINCQASETIYSGLAWYQQKPGQPPKLLIYDTANLETGVSSRFKGSGSGTEYTLTISDLECDDAATYFCLYAYYSGGSADNAFGGGTEVVVKG
notes: Recombinant rabbit monoclonal from B-cell cloning, expressed in FreeStyle 293-F cells; the first screen used B-cell culture supernatant; also called Anti-SG115 Antibody; rabbit Anti Fc-Mutation Antibody
Turning to B1, the binding result with SG115 [1] is listed as “binds”; in the assay with SG115v1 [2] it was “no binding (tested: about 60 ng/mL)”; in the assay with SG115v2 [3], “binds”; with Glm [4], “no binding (tested: about 60 ng/mL)”; with G4d [5] it was “no binding (tested: about 60 ng/mL)”.

B2: SKA0001 (antibody, V domains shown)
VH: QSVEESGGRLVTPGTPLTLTCTVSGFSLSYYAMNWVRQAPGKGLEWIGIIGISGGTYYASWAKGRFTISKSSSTTVDLKMTSPTTEDTATYFCARGGSAWGDLWGQGTLVTVSS
VL: DIVMTQTPSSVSAAVGGTVTINCQASQSISRLLAWYQQKPGQPPKVLMHDASDLASGVPSRFKGSGSGTEYTLTISDLECADAATYYCQSYYWGSSGDIGYPFGGGTEVVVKG
notes: as for B1
In the case of B2, the binding result with SG115 [6] is recorded as “binds”; with SG115v1 [7] it was “no binding (tested: about 60 ng/mL)”; with SG115v2 [8], “binds”; in the assay with Glm [9], “no binding (tested: about 60 ng/mL)”; with G4d [10], “no binding (tested: about 60 ng/mL)”.

B3: SKA0016 (antibody, V domains shown)
VH: QEQLVESGGGLVQPEGSLTLTCTASGFSFSSSDYMCWVRQAPGKGLEWIACIYIGSNGDTFYASWAKGRFTISKTSSTTVTLQMTSLTAADTATYFCARDSRRADDYGTRLDLWGQGTLVTVSS
VL: DIVMTQTPSSVSAAVGGTVTIKCQASQNIYRNLAWYQQKPGQPPKLLIYQASKLESGVPSRFKGSGSGTEFTLTISDLDCDDAASYYCQSISYISSGDTFFWAFGGGTEVVVKG
notes: as for B1
A word on the Kd: it is the free concentration of one partner at which half of the binding sites on the other are occupied at equilibrium, for simple one-to-one binding. The koff is a measure of how fast the partners let go of each other. A word on the kon: it is the second-order rate constant of association. Low readings indicate slow association, high ones fast association. In the case of B3, the binding result is reported as “binds” with SG115 [6]; “binds” with SG115v1 [7]; “no binding (tested: about 60 ng/mL)” in the assay with SG115v2 [8]; “no binding (tested: about 60 ng/mL)” in the assay with Glm [9]; “no binding (tested: about 60 ng/mL)” with G4d [10]. Besides, the Kd with Anti-IL-8 Antibody was 0.06 µM. The same molecule had a koff with Anti-IL-8 Antibody of 0.00071 s⁻¹. For the same molecule, in the assay with Anti-IL-8 Antibody, the kon worked out at 11800 M⁻¹ s⁻¹.

B4: SKA0009 (antibody, V domains shown)
VH: QSVEESGGRLVTPGTSLTLTCTVSGIDLSSYGMGWVRQAPGMGLEYIGIIYAAGRTYYASWVKGRFIISKTSTTVDLEMTSLTTEDTATYFCARHGSWYAGMDLWGPGTLVTVSS
VL: AIEMTQTPSPVSAAVGGTVSINCQASEDIENYFAWYQQKPGQPPKLLIYDASELASGVPSRFSGSGSGTDFTLTISGVQCDDAATYYCQHADYAASSENTFGGGTEVVVKG
notes: as for B1
With B4, the binding result in the assay with SG115 [6] is “binds”; with SG115v1 [7], “binds”; with SG115v2 [8] it was “no binding (tested: about 60 ng/mL)”; with Glm [9] it was “no binding (tested: about 60 ng/mL)”; with G4d [10], “no binding (tested: about 60 ng/mL)”. This molecule also showed a Kd with Anti-IL-8 Antibody of 0.0362 µM. Further, the koff with Anti-IL-8 Antibody stood at 0.000904 s⁻¹. The molecule also returned a kon with Anti-IL-8 Antibody of 25000 M⁻¹ s⁻¹.

B5: SKA0028 (antibody, V domains shown)
VH: QSVEESGGRLVTPGTPLTLTCTASGFTISSYHMSWVRQAPGKGLEWIGIIHGSGNMWYASWAKGRFTISRTSTTVDLEITSPTTEDTATYFCARIRFWASSNYYYFYLWGQGTLVTVSS
VL: ALVMTQTPASVSEPVGGTVTINCQASQNIYSNLAWYQQKPGQRPRLLIYGASNLESGVPSRFRGSGSGTEFTLTISDLECADAATYYCQSAYWGNNNDGAFGGGTEVVVKG
notes: as for B1
For B5, the binding result is recorded as “binds” with SG115 [6]; “no binding (tested: about 60 ng/mL)” with SG115v1 [7]; “binds” with SG115v2 [8]; “no binding (tested: about 60 ng/mL)” with Glm [9]; “no binding (tested: about 60 ng/mL)” with G4d [10].

B6: SKA0117 (antibody, V domains shown)
VH: QSLEESGGDLVKPEGSLTLTCTASGFSFSSSHYMCWVRQAPGKGLEWIACIYAGSSDNTYYASWAKGRFTISKTSSTTVTLQMTSLTAADTATYFCARDTYGYVGYASAGGFFNLWGPGTLVTVSS
VL: ALVMTQTPASVSAAVGGTVTINCQASHNIYSVLAWYQQKPGQRPRLLIYGASNLESGVPSRFKGSGSGTEYTLTISDLECDDAATYYCQSAYYSSSTGDNAFGGGTEVVVKG
notes: as for B1
Consider B6, for which the binding result with SG115 [1] is “binds”; in the assay with SG115v1 [2] it was “no binding (tested: about 60 ng/mL)”; with SG115v2 [3] it was “binds”; with Glm [4] it was “no binding (tested: about 60 ng/mL)”; with G4d [5], “no binding (tested: about 60 ng/mL)”.

B7: SKA0141 (antibody, V domains shown)
VH: QSLEESGGDLVKPGASLTLTCTASGFSFSSSYYMCWVRQAPGKGLEWIACIYAGSSGSTYYASWAKGRFTISKTSSTTVTLQMTSLTAADTATYFCARDGDENMLVGGYFNLWGPGTLVTVSS
VL: ALVMTQTPSSVSAAVGGTVTINCQASHNIYSNLAWYQQKPGQRPKLLIYGASNLESGVPSRFKGSGSGTEYTLTISDLECDDAATYYCQSAYYSSNAGYNAFGGGTEVVVKG
notes: as for B1
For B7, the binding result is “binds” in the assay with SG115 [1]; “no binding (tested: about 60 ng/mL)” with SG115v1 [2]; “binds” with SG115v2 [3]; “no binding (tested: about 60 ng/mL)” with Glm [4]; “no binding (tested: about 60 ng/mL)” in the assay with G4d [5].

B8: SKA0046 (antibody, V domains shown)
VH: QEQLVESGGGLVQPEGSLTLTCTASGFSLSSSNYMWWVRQAPGKGLEWIACIHASSSGDTYYANWAKGRFTISKTSSTTVTLQMTSLTAADTATYFCARGGYIYGDGGYNGVAGFSLWGPGTLVTVSS
VL: DVVMTQTPASVSEPVGGTVTIKCQASETIGNALAWYQQKPGQRPKLLIYGASNLESGVPSRFKGSGSGTEFTLTISDVQCDDAATYYCQSIYYSSSADTFFFPFGGGTEVVVKG
notes: as for B1
As to B8, the binding result is “binds” with SG115 [6]; “binds” with SG115v1 [7]; “no binding (tested: about 60 ng/mL)” with SG115v2 [8]; “no binding (tested: about 60 ng/mL)” with Glm [9]; “no binding (tested: about 60 ng/mL)” with G4d [10]. Further, binding with Anti-IL-8 Antibody was put at a Kd of 0.0496 µM. In the assay with Anti-IL-8 Antibody, this molecule returned a koff of 0.00209 s⁻¹. The molecule also showed a kon with Anti-IL-8 Antibody of 42000 M⁻¹ s⁻¹.

B9: SKA0027 (antibody, V domains shown)
VH: QEQLVESGGGLVQPEGSLTLTCTASGFSFSSSDYMCWVRQAPGKGLEWIGCIYTGSGSTYYASWAKGRFTISKTSSTTVTLQMTSLTAADTATFFCARRGDSYSNYSFKLWGPGTLVTVSS
VL: AFELTQTPASVEAAVGGTVTIKCQASQNIYSNLAWYQQKPGQPPKLLIYTASSLASGVSSRFKGSGSGTEFTLTISDLECDDAATYYCQCTYINNGYGNTFGGGTEVVVKG
notes: as for B1
In the case of B9, the binding result was “binds” with SG115 [6]; “no binding (tested: about 60 ng/mL)” with SG115v1 [7]; “binds” in the assay with SG115v2 [8]; “no binding (tested: about 60 ng/mL)” with Glm [9]; “no binding (tested: about 60 ng/mL)” with G4d [10].
